Source: publication PMC12697855, “Distinct Phage‐Encoded Enzymes for Substitution of Deoxythymidine by Deoxyuridine in Phage Genomes” (Advanced Science, 2025)

Assays:
[1] = system: T1, Dtt_PhiR1‐37; assay: phosphomolybdate phosphate release, coupled inorganic pyrophosphatase IPP1; assay type: biochemical, Yersinia phage phiR1-37; conditions: 2 mM Mg2+, 50 mM Tris-HCl pH 7.5, room temperature; read-out: kinetic parameters
T1 construct: gene Dtt; recombinant from codon-optimized synthetic gene in HMT plasmid, N-terminal His6-MBP tag, amylose column, E. coli
Text: phosphomolybdate phosphate release, coupled inorganic pyrophosphatase IPP1 on Dtt_PhiR1‐37

[2] = system: T2, Dcd_PhiR1‐37; assay: UV absorbance at […] nm, deamination; assay type: biochemical, Yersinia phage phiR1-37; conditions: Mg2+ (table; methods text says 2 mM Mn2+), 50 mM Tris-HCl pH 7.5, room temperature; read-out: kinetic parameters
T2 construct: gene Dcd; recombinant from codon-optimized synthetic gene in HMT plasmid, N-terminal His6-MBP tag, amylose column, E. coli

[3] = target: T3, Dcd_PBS1 (Bacillus phage PBS1, UniProt A0A223LD31); assay: inhibition of dCTP deamination (details in supplement); assay type: biochemical; conditions: inhibitor (negative regulation); also the reaction product
T3 construct: gene 112; recombinant from codon-optimized synthetic gene in HMT plasmid, N-terminal His6-MBP tag, amylose column, E. coli
T3 sequence (A0A223LD31 1-176): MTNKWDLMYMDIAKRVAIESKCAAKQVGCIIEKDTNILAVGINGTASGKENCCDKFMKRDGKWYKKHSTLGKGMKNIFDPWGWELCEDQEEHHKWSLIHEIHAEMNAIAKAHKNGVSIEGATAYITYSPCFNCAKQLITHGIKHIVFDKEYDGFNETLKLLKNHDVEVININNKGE

[4] = substrate: Nc1ccn([C@H]2C[C@H](O)[C@@H](COP(=O)(O)O)O2)c(=O)n1; assay: purified protein; assay type: biochemical, Exiguobacterium artemiae; conditions: Co2+ is best metal (methods text for kinetics says 2 mM Mn2+), 50 mM Tris-HCl pH 7.5, room temperature
[5] = substrate: Nc1ccn([C@H]2C[C@H](O)[C@@H](COP(=O)(O)OP(=O)(O)O)O2)c(=O)n1; assay: purified protein; assay type: biochemical, Exiguobacterium artemiae; conditions: Co2+ is best metal (methods text for kinetics says 2 mM Mn2+), 50 mM Tris-HCl pH 7.5, room temperature
[6] = substrate: Nc1ccn([C@H]2C[C@H](O)[C@@H](COP(=O)(O)OP(=O)(O)OP(=O)(O)O)O2)c(=O)n1; assay: purified protein; assay type: biochemical, Exiguobacterium artemiae; conditions: Co2+ is best metal (methods text for kinetics says 2 mM Mn2+), 50 mM Tris-HCl pH 7.5, room temperature
[7] = substrate: Cc1cn([C@H]2C[C@H](O)[C@@H](COP(=O)(O)O)O2)c(=O)[nH]c1=O; assay: phosphomolybdate phosphate release; assay type: biochemical, Bacillus phage PBS1; conditions: Mg2+ (table; methods text says 2 mM Co2+), 50 mM Tris-HCl pH 7.5, room temperature
Text: phosphomolybdate phosphate release on Dtm_PBS1

[8] = substrate: Nc1ccn([C@H]2C[C@H](O)[C@@H](COP(=O)(O)OP(=O)(O)OP(=O)(O)O)O2)c(=O)n1; assay: purified protein; assay type: biochemical, Bacillus phage PBS1; conditions: 2 mM Mn2+, 50 mM Tris-HCl pH 7.5, room temperature
[9] = substrate: Nc1ccn([C@H]2C[C@H](O)[C@@H](COP(=O)(O)O)O2)c(=O)n1; assay: purified protein; assay type: biochemical, Sulfurimonas gotlandica; conditions: 2 mM Mn2+, 50 mM Tris-HCl pH 7.5, room temperature
[10] = substrate: Nc1ccn([C@H]2C[C@H](O)[C@@H](COP(=O)(O)OP(=O)(O)O)O2)c(=O)n1; assay: purified protein; assay type: biochemical, Sulfurimonas gotlandica; conditions: 2 mM Mn2+, 50 mM Tris-HCl pH 7.5, room temperature
[11] = substrate: Nc1ccn([C@H]2C[C@H](O)[C@@H](COP(=O)(O)OP(=O)(O)OP(=O)(O)O)O2)c(=O)n1; assay: purified protein; assay type: biochemical, Sulfurimonas gotlandica; conditions: 2 mM Mn2+, 50 mM Tris-HCl pH 7.5, room temperature
[12] = substrate: Cc1cn([C@H]2C[C@H](O)[C@@H](COP(=O)(O)O)O2)c(=O)[nH]c1=O; assay: phosphomolybdate phosphate release; assay type: biochemical, Bacteriophage DSS3_VP1; conditions: 2 mM Co2+, 50 mM Tris-HCl pH 7.5, room temperature
Text: (§1) phosphomolybdate phosphate release on Dtm_DSS3_VP1

[13] = substrate: O=c1ccn([C@H]2C[C@H](O)[C@@H](COP(=O)(O)O)O2)c(=O)[nH]1; assay: phosphomolybdate phosphate release; assay type: biochemical, Bacteriophage DSS3_VP1; conditions: 2 mM Co2+, 50 mM Tris-HCl pH 7.5, room temperature
Text: as §1

[14] = substrate: Nc1ccn([C@H]2C[C@H](O)[C@@H](COP(=O)(O)O)O2)c(=O)n1; assay: purified protein; assay type: biochemical, Bacteriophage DSS3_VP1; conditions: 2 mM Mn2+, 50 mM Tris-HCl pH 7.5, room temperature
[15] = substrate: Nc1ccn([C@H]2C[C@H](O)[C@@H](COP(=O)(O)OP(=O)(O)O)O2)c(=O)n1; assay: purified protein; assay type: biochemical, Bacteriophage DSS3_VP1; conditions: 2 mM Mn2+, 50 mM Tris-HCl pH 7.5, room temperature
[16] = substrate: Nc1ccn([C@H]2C[C@H](O)[C@@H](COP(=O)(O)OP(=O)(O)OP(=O)(O)O)O2)c(=O)n1; assay: purified protein; assay type: biochemical, Bacteriophage DSS3_VP1; conditions: 2 mM Mn2+, 50 mM Tris-HCl pH 7.5, room temperature

## Cc1cn([C@H]2C[C@H](O)[C@@H](COP(=O)(O)OP(=O)(O)OP(=O)(O)O)O2)c(=O)[nH]c1=O [dTTP]
[1]
  Km: 108 ± 11 µM

## Nc1ccn([C@H]2C[C@H](O)[C@@H](COP(=O)(O)OP(=O)(O)OP(=O)(O)O)O2)c(=O)n1 [dCTP]
[2]
  Km: 117 ± 31 µM

## Nc1nc2c(ncn2[C@H]2C[C@H](O)[C@@H](COP(=O)(O)OP(=O)(O)OP(=O)(O)O)O2)c(=O)[nH]1 [dGTP]
[1]
  Km: 440 ± 110 µM

## O=c1ccn([C@H]2C[C@H](O)[C@@H](COP(=O)(O)OP(=O)(O)OP(=O)(O)O)O2)c(=O)[nH]1 [dUTP]
[1]
  Km: 145 ± 16 µM
[3]
  inhibition of dCTP deamination (details in supplement): Bacillus phage PBS1 Dcd is negatively regulated by dUTP (Figure S9, Supporting Information)

B1: E. sibiricum cytidine nucleotide deaminase (Exiguobacterium artemiae 255-15) (protein)
chain: MMKKQHQWDTTWLLFARMMADRHSKCASKSVACVIVKDEKPISIGINGTPSQHVNCNEIYLKQDNILYKAEAERQQEKADALSIVHNGQVFYRCDNQEEHHEWSKMNEIHAEINALGKLAADSTSARHATAYVTHSPCHACSLALIASKIDRVVYSTGYEYGDGLTLMRQSEIEVLHRPLTEEYFLERIFDKDL
notes: recombinant from codon-optimized synthetic gene in HMT plasmid, N-terminal His6-MBP tag, amylose column, E. coli
[4]
  Km: 415 ± 143 µM
  kcat: 0.05 ± 0.01 s⁻¹
[5]
  Km: 179 ± 31 µM
  kcat: 21.2 ± 1.9 s⁻¹
[6]
  Km: 186 ± 35 µM
  kcat: 0.9 ± 0.1 s⁻¹

B2: Dtm_PBS1 (Bacillus phage PBS1) (protein)
chain: MFSIKEPFSIVTDCDEVLTDISPLWVHKIQQNADYFGKYFDLSKLEGLEFGTFEHYQTVLSRPEFHLNKWLRKENLVLSDEEEKELFERFYSLYDNDEFYEDCMPTKMCEGIYKLSLQKFVDKIYVVTRTSEGTKEGKRKFIETFLNSNKVEIIFVGKNEKKSDYIKNLKNVKMIVEDELSNINDIVENCNDGFEEVDIYIPSTGYNNKDIDGFNENLMKKGFNAVPYVIIERPETEEKAV
notes: recombinant from pCold TF, E. coli BL21(DE3), N-terminal His6-Trigger factor-TEV site tag, Ni-NTA; tag kept
[7]
  Km: 42 ± 8 µM
  kcat: 0.0317 ± 0.0017 s⁻¹

B3: Dcd_PBS1 (Bacillus phage PBS1) (protein)
chain: MTNKWDLMYMDIAKRVAIESKCAAKQVGCIIEKDTNILAVGINGTASGKENCCDKFMKRDGKWYKKHSTLGKGMKNIFDPWGWELCEDQEEHHKWSLIHEIHAEMNAIAKAHKNGVSIEGATAYITYSPCFNCAKQLITHGIKHIVFDKEYDGFNETLKLLKNHDVEVININNKGE
notes: as for B1
[8]
  Km: 137 ± 23 µM
  kcat: 15.4 ± 1 s⁻¹

B4: S. gotlandica cytidine nucleotide deaminase (Sulfurimonas gotlandica GD1) (protein)
chain: MLSDQNFINIAQELATASKCVSKQVGAVIVKDGRILSTGYNGTPAGFTNCCDHWNGEYTPDHHEWSKTYEIHAEMNAIIWAARKGISIEGASIFVTLEPCSECSKNLIASGIKRIVYAKEYEHTHSDTISKFIKDNGVSIEQLAPKV
notes: as for B1
[9]
  Km: 661 ± 178 µM
  kcat: 0.28 ± 0.05 s⁻¹
[10]
  Km: 271 ± 90 µM
  kcat: 0.5 ± 0.1 s⁻¹
[11]
  Km: 293 ± 88 µM
  kcat: 0.06 ± 0.01 s⁻¹

B5: Dtm_DSS3_VP1 (Bacteriophage DSS3_VP1) (protein)
chain: MCNEKIALGYELYTSGYVNRYHSHPHPHLRNAQDLTDAHSNRMVKLLYLFFPELAHRGTLVAYIVMHDAGESASGDSPFTAKIANPKLKEALDEVEGQRLAQFYGLFQNDLRIDLTQKEENVVKLLDLLESFLFQAIHAPGRMDEEHHLFQNIEKRARELEVYPEVRCMMMHALHRNNAATKGY
notes: as for B1
[12]
  Km: 22 ± 4 µM
  kcat: 3.1 ± 0.1 s⁻¹
[13]
  Km: 170 ± 15 µM
  kcat: 1 ± 0.1 s⁻¹

B6: Dcd_DSS3_VP1 (Bacteriophage DSS3_VP1) (protein)
chain: MHSWDKRFMEMAELVASWSKDPRTKVGCVLADSKHRVLGVGYNGFPRGVNDRDDRYANREVKLAMVKHAEENAVFNAAKHDLSDAVAYVTLAPCSSCAGTLIQAGVRRVVFPEPDPEHMTRHYGNYELMLQMLSEARVLKSVITKEGVIK
notes: as for B1
[14]
  Km: 257 ± 55 µM
  kcat: 1 ± 0.1 s⁻¹
[15]
  Km: 144 ± 44 µM
  kcat: 5.6 ± 0.8 s⁻¹
[16]
  Km: 114 ± 22 µM
  kcat: 8.9 ± 0.7 s⁻¹
